# In patent US20210379046A1, “Methods of Treating Diseases Using Kinase Modulators” (Memorial Sloan Kettering Cancer Center, priority 2018, published 2021):
# Target: non-WT1-derived peptide expressed on TPC1 cells in complex with HLA-A*02:01 (human)
# Assay: cell-based or functional assay
substance,measurement,value
ESK1 (antibody),"improvement of specific lysis, chromium-51 release ADCC, TPC1 cells pretreated with 100 nM trametinib",10%
same,"percent specific lysis, chromium-51 release ADCC with human PBMCs, 50:1 E:T, TPC1 cells pretreated with 10 nM AST487",20%
same,"percent specific lysis, chromium-51 release ADCC with human PBMCs, 50:1 E:T, TPC1 cells pretreated with DMSO",3%
